Data as given in publication PMC12262204.
Read-outs that look alike come from different tables or passages of the source.

Assays:
Assay in all cases: BLI
[1] = molecular target: T1, Biotin-CGRP(8-37)NH2[N31D/S34P/K35W/A36S] (human)
T1 sequence (P06881 90-119 with N31D S34P K35W A36S, looked up): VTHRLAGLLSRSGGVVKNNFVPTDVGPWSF

[2] = molecular target: biotin-CGRP(8-37)NH2 (human)
[3] = molecular target: T1, Biotin-CGRP(8-37)NH2[N31D/S34P/K35W/A36S] (human); remark: listed apart in the source

half-life [1]: 1.52 min | residence time [1]: 2.18 min | Kd [2]: 52.2 µM | koff [2]: 3.3 s⁻¹ | kon [2]: 63300 M⁻¹ s⁻¹ | residence time [3]: 132 s
Substance: RAMP1.24-111-(GS)5-CLR.29-134-H6 (CLR:RAMP1 ECD fusion protein) (from UniProt O60894 24-111; Q16602 29-134) (receptor)
